As a reminder, the Kd is the constant that tells how readily two partners part at equilibrium.

What all share (experiment): FP competition (Ki)
For one test, the target named is T1, AAKG2 (Homo sapiens (Human), UniProt Q9UGJ0).
T1 chain: SQKRRSLRVHIP

For a further test, the target named is T2, DOCK5 (Homo sapiens (Human), UniProt Q9H7D0).
T2 chain: KAQRPKSLQLM

A further test deals with T3, JAZF1 (Homo sapiens (Human), UniProt Q86VZ6).
T3 chain: SLKKKIQPKLSLTLS

A further test deals with T4, DOCK7 (Homo sapiens (Human), UniProt Q96N67).
T4 chain: RSAVRPASLNLNRSR

Another test concerns the target T5, DCX (Mus musculus (Mouse), UniProt O88809).
T5 chain: SLRKHKVDLYLPLSL

The target in the next test is T6, CCNT2 (Homo sapiens (Human), UniProt O60583).
T6 chain: KKEKSGSLKLRIPIP

A further test has as its target T7, APBA2 (Homo sapiens (Human), UniProt Q99767).
T7 chain: RHEARPKSLNLL

Another test concerns the target T8, PDE4B (Homo sapiens (Human), UniProt Q07343).
T8 chain: EGDGISRPTTLPLTTLPS

The target of the next test is T9, RHDF1 (Homo sapiens (Human), UniProt Q96CC6).
T9 chain: SLQRKKPPWLKLDIPS

Another test concerns the target T10, IRS1 (Homo sapiens (Human), UniProt P35568).
T10 chain: RLARPTRLSL

The target in a further test is T11, KSR2 (Homo sapiens (Human), UniProt Q6VAB6).
T11 chain: KKKSKPLNLKI

The next test concerns the target T12, GAB3b (Homo sapiens (Human), UniProt Q8WWW8).
T12 chain: KPQRKSRPPPLDLRNLS

A further test concerns the target T13, MYO9B (Homo sapiens (Human), UniProt Q13459).
T13 chain: LERPTSLALD

B1: JNK1 (protein)
chain: DNNFYSVEIGDSTFTVLKRYQNLKPIGSGAQGIVCAAYDAILERNVAIKKLSRPFQNQTHAKRAYRELVLMKCVNHKNIIGLLNVFTPQKSLEEFQDVYIVMELMDANLCQVIQMELDHERMSYLLYQMLCGIKHLHSAGIIHRDLKPSNIVVKSDCTLKILDFGLARTAGTSFMMTPYVVTRYYRAPEVILGMGYKENVDLWSVGCIMGEMVCHKILFPGRDYIDQWNKVIEQLGTPCPEFMKKLQPTVRTYVENRPKYAGYSFEKLFPDVLFPADSEHNKLKASQARDLLSKMLVIDASKRISVDEALQHPYINVWYDPSEAEAPPPKIPDKQLDEREHTIEEWKELIYKEVMDLE
For the molecule B1, the Kd with AAKG2 was above 100 µM; with DOCK5, 5.1 µM; with JAZF1 it was above 100 µM; with DOCK7, 7.3 µM; in the test with DCX, 16.7 µM; with CCNT2, above 100 µM. The Kd with APBA2 is 10.8 µM; with PDE4B, 16.4 µM; with RHDF1, above 100 µM; with IRS1, 3.5 µM; in the test with KSR2, 24.7 µM; with GAB3b it was 13.2 µM. This molecule gave a Kd in the test with MYO9B of 15.9 µM.

The values are drawn from article PMC4670726 (2015).
